Assay results as given in US20240209039A1 (RIKEN, published 2024).

Key:
[1] = target: the molecule itself; assay: pseudo-native PAGE, self-association (homodimer), FIG. 17
[2] = target: the molecule itself; assay: pseudo-native PAGE (10% acrylamide, 0.1% SDS, no heat treatment), self-association
Experimental: After purification of the proteins with use of Ni-NTA, pseudo-native PAGE was carried out. The separation gel contained 10% acrylamide and 0.1% SDS. The sample buffer contained 2% SDS and 100 mM DTT. No heat treatment was carried out.

Protein	binding result [1]	binding result [2]
StayGold (CU17S/V168A mutant) (other, Made in E. coli JM109 (DE3) and purified on Ni-NTA; also called StayGold (dimer); not shown: N-terminal histidine tag from the pRSETB vector (purified on Ni-NTA)) MASTPFKFQLKGTINGKSFTVEGEGEGNSHEGSHKGKYVCTSGKLPMSWAALGTSFGYGMKYYTKYPSGLKNWFHEVMPEGFTYDRHIQYKGDGSIHAKHQHFMKNGTYHNIVEFTGQDFKENSPVLTGDMNVSLPNEVQHIPRDDGVECPVTLLYPLLSDKSKCVEAHQNTICKPLHNQPAPDVPYHWIRKQYTQSKDDTEERDHICQSETLEAHL	binds	
StayGold Y187A (other, not shown: histidine tag implied by Ni-NTA purification) MASTPFKFQLKGTINGKSFTVEGEGEGNSHEGSHKGKYVCTSGKLPMSWAALGTSFGYGMKYYTKYPSGLKNWFHEVMPEGFTYDRHIQYKGDGSIHAKHQHFMKNGTYHNIVEFTGQDFKENSPVLTGDMNVSLPNEVQHIPRDDGVECPVTLLYPLLSDKSKCVEAHQNTICKPLHNQPAPDVPAHWIRKQYTQSKDDTEERDHICQSETLEAHL		no binding
StayGold L155T (other, not shown: histidine tag implied by Ni-NTA purification) MASTPFKFQLKGTINGKSFTVEGEGEGNSHEGSHKGKYVCTSGKLPMSWAALGTSFGYGMKYYTKYPSGLKNWFHEVMPEGFTYDRHIQYKGDGSIHAKHQHFMKNGTYHNIVEFTGQDFKENSPVLTGDMNVSLPNEVQHIPRDDGVECPVTLTYPLLSDKSKCVEAHQNTICKPLHNQPAPDVPYHWIRKQYTQSKDDTEERDHICQSETLEAHL		no binding
